Reference: publication PMC11209618

Experiments:
[1] = target: voltage-gated sodium channel Nav1.7 (UniProt Q15858)
[2] = target: voltage-gated sodium channel Nav1.4 (UniProt P35499)
[3] = target: voltage-gated sodium channel Nav1.5 (UniProt Q14524)
[4] = target: voltage-gated sodium channel Nav1.7 (UniProt Q15858); remark: listed apart in the source
[5] = target: voltage-gated sodium channel Nav1.3 (UniProt Q9NY46)
[6] = target: voltage-gated sodium channel Nav1.6 (UniProt Q9UQD0)
[7] = target: voltage-gated sodium channel Nav1.2 (UniProt Q99250)
[8] = target: voltage-gated sodium channel Nav1.1 (UniProt P35498)
[9] = target: voltage-gated sodium channel Nav1.4 (UniProt P35499); remark: listed apart in the source

voltage-gated sodium channel Nav1.4, sequence (P35499 whole entry): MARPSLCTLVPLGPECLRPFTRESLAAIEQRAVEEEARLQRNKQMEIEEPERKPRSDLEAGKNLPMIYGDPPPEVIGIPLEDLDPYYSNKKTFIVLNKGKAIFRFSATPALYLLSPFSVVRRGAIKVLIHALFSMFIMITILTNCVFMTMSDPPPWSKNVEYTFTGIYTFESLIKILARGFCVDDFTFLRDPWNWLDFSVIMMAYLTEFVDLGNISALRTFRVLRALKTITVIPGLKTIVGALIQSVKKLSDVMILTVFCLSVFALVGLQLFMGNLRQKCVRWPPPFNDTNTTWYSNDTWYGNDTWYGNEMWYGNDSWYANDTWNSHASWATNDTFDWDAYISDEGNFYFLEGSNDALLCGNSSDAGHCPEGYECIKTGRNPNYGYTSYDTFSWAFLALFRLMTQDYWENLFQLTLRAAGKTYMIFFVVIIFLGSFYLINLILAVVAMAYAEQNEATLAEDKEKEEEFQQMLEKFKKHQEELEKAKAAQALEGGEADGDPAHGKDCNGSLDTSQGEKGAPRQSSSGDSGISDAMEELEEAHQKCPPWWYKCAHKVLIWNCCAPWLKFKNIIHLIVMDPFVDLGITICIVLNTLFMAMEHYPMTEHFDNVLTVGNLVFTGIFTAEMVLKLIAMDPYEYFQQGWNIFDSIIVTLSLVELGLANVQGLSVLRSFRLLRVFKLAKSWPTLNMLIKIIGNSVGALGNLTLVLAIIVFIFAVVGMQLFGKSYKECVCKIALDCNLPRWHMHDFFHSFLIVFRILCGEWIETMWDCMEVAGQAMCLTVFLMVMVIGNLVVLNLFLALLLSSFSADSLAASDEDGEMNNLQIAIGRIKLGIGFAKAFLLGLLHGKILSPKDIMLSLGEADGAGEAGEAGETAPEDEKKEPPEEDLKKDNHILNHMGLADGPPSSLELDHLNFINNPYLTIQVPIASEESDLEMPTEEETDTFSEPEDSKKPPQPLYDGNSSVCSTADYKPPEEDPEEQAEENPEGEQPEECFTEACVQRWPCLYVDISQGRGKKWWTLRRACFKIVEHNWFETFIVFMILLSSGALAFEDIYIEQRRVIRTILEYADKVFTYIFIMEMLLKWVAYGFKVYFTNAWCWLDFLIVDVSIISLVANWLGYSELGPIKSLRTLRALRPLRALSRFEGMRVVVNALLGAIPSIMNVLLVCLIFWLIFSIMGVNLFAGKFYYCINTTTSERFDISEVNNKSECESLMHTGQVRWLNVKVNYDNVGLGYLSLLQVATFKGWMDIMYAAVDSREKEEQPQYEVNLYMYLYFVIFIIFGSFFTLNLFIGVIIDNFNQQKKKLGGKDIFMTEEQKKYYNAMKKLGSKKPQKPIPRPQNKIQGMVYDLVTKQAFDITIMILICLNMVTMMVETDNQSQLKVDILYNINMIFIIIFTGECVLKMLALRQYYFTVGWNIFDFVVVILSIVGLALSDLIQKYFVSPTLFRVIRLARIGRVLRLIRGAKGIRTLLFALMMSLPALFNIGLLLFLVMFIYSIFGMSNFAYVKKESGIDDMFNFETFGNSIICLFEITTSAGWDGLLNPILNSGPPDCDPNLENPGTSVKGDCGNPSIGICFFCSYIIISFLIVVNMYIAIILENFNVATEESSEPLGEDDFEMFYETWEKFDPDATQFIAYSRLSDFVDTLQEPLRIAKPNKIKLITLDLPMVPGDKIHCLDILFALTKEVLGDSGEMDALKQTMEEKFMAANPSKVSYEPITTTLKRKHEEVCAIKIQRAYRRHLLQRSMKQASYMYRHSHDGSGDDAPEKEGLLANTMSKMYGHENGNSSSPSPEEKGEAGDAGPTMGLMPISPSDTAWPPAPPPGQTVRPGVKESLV
voltage-gated sodium channel Nav1.7, sequence (Q15858 whole entry): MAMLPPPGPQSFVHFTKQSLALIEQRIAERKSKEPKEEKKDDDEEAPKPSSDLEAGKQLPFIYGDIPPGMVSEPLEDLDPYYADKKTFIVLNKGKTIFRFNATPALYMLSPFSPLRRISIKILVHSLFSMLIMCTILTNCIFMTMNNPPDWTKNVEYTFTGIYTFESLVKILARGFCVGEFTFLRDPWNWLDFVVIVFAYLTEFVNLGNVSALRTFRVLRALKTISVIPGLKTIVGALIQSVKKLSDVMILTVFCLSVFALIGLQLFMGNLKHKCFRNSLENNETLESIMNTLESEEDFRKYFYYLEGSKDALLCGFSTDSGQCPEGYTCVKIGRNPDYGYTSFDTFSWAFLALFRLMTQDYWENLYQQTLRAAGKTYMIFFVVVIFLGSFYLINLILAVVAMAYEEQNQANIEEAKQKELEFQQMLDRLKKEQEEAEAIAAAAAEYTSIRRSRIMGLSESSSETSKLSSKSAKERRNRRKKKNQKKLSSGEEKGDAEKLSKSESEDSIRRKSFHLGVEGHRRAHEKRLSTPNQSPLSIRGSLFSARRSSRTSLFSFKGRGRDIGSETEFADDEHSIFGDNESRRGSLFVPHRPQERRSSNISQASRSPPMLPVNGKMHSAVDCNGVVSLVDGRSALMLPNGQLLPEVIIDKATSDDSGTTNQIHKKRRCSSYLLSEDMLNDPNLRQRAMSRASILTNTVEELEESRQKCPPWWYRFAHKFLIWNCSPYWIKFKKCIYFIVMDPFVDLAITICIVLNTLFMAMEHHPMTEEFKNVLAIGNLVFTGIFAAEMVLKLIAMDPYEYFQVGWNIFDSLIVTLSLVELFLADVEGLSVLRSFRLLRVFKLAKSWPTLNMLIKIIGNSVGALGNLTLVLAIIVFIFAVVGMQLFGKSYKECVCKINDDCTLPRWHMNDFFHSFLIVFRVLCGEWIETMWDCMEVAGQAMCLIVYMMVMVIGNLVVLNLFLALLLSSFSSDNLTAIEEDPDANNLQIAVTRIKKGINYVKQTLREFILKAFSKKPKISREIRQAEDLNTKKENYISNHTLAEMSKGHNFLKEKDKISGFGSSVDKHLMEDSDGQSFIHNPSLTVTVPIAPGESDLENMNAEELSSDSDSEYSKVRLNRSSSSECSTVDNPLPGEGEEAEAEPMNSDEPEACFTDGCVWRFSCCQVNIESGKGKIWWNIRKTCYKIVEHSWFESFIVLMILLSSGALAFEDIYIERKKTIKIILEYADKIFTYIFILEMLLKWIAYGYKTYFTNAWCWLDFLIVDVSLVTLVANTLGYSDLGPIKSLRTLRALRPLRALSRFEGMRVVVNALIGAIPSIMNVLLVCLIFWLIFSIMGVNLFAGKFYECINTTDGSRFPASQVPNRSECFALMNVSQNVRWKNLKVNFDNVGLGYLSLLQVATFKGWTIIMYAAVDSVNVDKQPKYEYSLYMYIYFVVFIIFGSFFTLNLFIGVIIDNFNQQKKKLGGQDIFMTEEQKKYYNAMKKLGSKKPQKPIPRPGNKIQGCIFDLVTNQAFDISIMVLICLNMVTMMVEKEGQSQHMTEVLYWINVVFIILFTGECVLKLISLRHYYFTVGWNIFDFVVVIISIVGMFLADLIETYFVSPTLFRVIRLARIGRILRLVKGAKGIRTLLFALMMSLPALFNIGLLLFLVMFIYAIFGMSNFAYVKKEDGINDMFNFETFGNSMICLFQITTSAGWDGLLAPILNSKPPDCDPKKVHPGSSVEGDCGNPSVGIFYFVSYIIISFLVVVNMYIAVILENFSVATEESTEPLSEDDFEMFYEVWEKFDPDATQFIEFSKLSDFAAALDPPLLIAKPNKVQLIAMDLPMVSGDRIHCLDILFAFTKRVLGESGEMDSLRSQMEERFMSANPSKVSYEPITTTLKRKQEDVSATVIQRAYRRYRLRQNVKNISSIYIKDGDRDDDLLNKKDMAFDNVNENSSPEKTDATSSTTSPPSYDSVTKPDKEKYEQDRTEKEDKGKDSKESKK
Tst3 toxin from Tityus stigmurus venom, sequence (P0C8X5 whole entry): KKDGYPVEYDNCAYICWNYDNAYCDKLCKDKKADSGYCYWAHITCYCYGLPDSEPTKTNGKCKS

In the case of “Tst3 toxin from Tityus stigmurus venom (from UniProt P0C8X5 1-64) (natural protein)”, the delay of fast inactivation of Nav1.7 currents recorded at 0 mV, whole-cell patch clamp, 200 nM Tst3 [1] was 12.6 ms, the increase of the fast inactivation time constant (Δτ) of Nav1.4 currents recorded at 0 mV, two-step protocol of the Tst3/Ts3 comparison, whole-cell patch clamp, 200 nM Tst3 [2] was 6.09 ms and the increase of the persistent current (ΔIPers) of Nav1.4, whole-cell patch clamp, 200 nM Tst3 [2] was 4.4%. For the same substance, the shift of the half-maximal activation voltage (ΔV1/2) of Nav1.4, whole-cell patch clamp, 200 nM Tst3 [2] was -5.19 mV, the shift of the half-maximal steady-state inactivation voltage (ΔV1/2h) of Nav1.4, whole-cell patch clamp, 200 nM Tst3 [2] was 1.22 mV and the increase of the fast inactivation time constant (Δτ) of Nav1.5, whole-cell patch clamp, 200 nM Tst3 [3] was 13.2 ms. The shift of the half-maximal activation voltage (ΔV1/2) of Nav1.5, whole-cell patch clamp, 200 nM Tst3 [3] was -8.66 mV, the increase of the fast inactivation time constant (Δτ) of Nav1.7, activation protocol of the isoform screen, whole-cell patch clamp, 200 nM Tst3 [4] was 18.8 ms and the shift of the half-maximal activation voltage (ΔV1/2) of Nav1.7, whole-cell patch clamp, 200 nM Tst3 [4] was -8.55 mV. For the same substance, the increase of the fast inactivation time constant (Δτ) of Nav1.3, whole-cell patch clamp, 200 nM Tst3 [5] was 6.87 ms, the shift of the half-maximal activation voltage (ΔV1/2) of Nav1.3, whole-cell patch clamp, 200 nM Tst3 [5] was -8.68 mV and the increase of the fast inactivation time constant (Δτ) of Nav1.6, whole-cell patch clamp, 200 nM Tst3 [6] was 6.37 ms. For the same substance, the shift of the half-maximal activation voltage (ΔV1/2) of Nav1.6, whole-cell patch clamp, 200 nM Tst3 [6] was -3.82 mV, the increase of the fast inactivation time constant (Δτ) of Nav1.2, whole-cell patch clamp, 200 nM Tst3 [7] was 9.17 ms and the shift of the half-maximal activation voltage (ΔV1/2) of Nav1.2, whole-cell patch clamp, 200 nM Tst3 [7] was -9.02 mV. For the same substance, the increase of the fast inactivation time constant (Δτ) of Nav1.1, whole-cell patch clamp, 200 nM Tst3 [8] was 5.71 ms, the shift of the half-maximal activation voltage (ΔV1/2) of Nav1.1, whole-cell patch clamp, 200 nM Tst3 [8] was -7.15 mV and the increase of the fast inactivation time constant (Δτ) of Nav1.4, activation protocol of the isoform screen, whole-cell patch clamp, 200 nM Tst3 [9] was 5.61 ms.
For “Ts3 toxin from Tityus serrulatus venom (natural protein)”, the delay of fast inactivation of Nav1.7 currents recorded at 0 mV, whole-cell patch clamp, 200 nM Ts3 [1] was 9.37 ms, the increase of the fast inactivation time constant (Δτ) of Nav1.4 currents recorded at 0 mV, whole-cell patch clamp, 200 nM Ts3 [2] was 4.82 ms and the increase of the persistent current (ΔIPers) of Nav1.4, whole-cell patch clamp, 200 nM Ts3 [2] was 3.1%. For the same substance, the shift of the half-maximal activation voltage (ΔV1/2) of Nav1.4, whole-cell patch clamp, 200 nM Ts3 [2] was -4.15 mV and the shift of the half-maximal steady-state inactivation voltage (ΔV1/2h) of Nav1.4, whole-cell patch clamp, 200 nM Ts3 [2] was 2.03 mV.
